As usually defined, the stoichiometry N is the number of molecules, sites or subunits per partner or assembly.

The target of experiment [1] is STAM(300-387) of ESCRT-0 core construct b (human) (UniProt Q92783). Put plainly: SDS-PAGE and mass spectrometry of dissolved crystals.
Experiment [2] has as its target recombinant full-length human STAM of the full-length ESCRT-0 complex (human) (UniProt Q92783). Briefly: AUC.
The target is the same in experiment [3]. Briefly: SEC-MALS.

Chain of recombinant full-length human STAM of the full-length ESCRT-0 complex (human) (Q92783 whole entry, one chain of several): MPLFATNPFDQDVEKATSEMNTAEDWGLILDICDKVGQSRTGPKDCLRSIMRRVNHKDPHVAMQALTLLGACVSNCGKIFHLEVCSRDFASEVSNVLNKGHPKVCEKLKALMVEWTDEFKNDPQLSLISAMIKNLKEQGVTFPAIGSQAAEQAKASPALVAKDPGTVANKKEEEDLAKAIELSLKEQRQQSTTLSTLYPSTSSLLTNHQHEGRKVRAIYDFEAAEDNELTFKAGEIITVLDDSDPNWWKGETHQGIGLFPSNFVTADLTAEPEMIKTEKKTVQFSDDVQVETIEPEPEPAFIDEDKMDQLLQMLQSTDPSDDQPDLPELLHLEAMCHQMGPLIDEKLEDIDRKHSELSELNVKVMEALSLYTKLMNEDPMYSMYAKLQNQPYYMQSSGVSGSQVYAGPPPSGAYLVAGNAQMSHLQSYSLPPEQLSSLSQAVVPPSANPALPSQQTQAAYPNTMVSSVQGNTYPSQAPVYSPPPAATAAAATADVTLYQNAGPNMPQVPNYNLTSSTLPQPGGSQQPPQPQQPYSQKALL
Chain of Hrs(398-557) of ESCRT-0 core construct b (O14964 398-514): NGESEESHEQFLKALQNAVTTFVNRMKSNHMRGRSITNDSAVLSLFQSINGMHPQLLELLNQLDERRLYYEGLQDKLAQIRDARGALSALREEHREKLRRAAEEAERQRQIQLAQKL

For the substance “Hrs(398-557) of ESCRT-0 core construct b (from UniProt O14964 398-557) (domain or fragment)”, in experiment [1], the stoichiometry N was 1 Hrs:STAM.

On to “recombinant full-length Hrs (mouse Hrs gene) of the full-length ESCRT-0 complex (from UniProt Q99LI8 1-775) (natural protein)”, for which the stoichiometry N in experiment [2] and in experiment [3] was 1 Hrs:STAM each time.

The record behind these values is publication PMC2676576.
